{"source": "paper PMC10613289", "about": "“A circular RNA activated by TGFβ promotes tumor metastasis through enhancing IGF2BP3-mediated PDPN mRNA stability”", "key": {"[1]": {"biological_target": "T1, IGF2BP3 (recombinant GST fusion) (UniProt O00425 1-579)", "T1 sequence (O00425 whole entry, the tested form may be a part)": "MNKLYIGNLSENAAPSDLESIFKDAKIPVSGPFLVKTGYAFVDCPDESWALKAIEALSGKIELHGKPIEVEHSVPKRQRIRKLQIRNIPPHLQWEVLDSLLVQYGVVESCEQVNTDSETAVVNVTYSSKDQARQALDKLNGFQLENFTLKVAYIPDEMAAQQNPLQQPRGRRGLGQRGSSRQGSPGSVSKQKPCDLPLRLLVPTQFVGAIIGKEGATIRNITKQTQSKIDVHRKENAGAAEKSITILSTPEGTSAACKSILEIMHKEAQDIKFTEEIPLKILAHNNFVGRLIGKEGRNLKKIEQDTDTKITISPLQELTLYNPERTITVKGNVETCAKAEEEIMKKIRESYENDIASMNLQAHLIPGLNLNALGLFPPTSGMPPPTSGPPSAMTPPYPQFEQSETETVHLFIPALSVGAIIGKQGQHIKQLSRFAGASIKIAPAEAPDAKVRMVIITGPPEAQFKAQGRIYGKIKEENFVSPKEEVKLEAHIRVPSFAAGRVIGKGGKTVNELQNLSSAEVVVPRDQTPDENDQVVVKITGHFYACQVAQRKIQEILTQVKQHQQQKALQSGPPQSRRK", "assay": "competition; against biotin-circITGB6 (1 uM), protein 1 uM; EMSA: 10 mM HEPES pH 7.3, 20 mM KCl, 1 mM MgCl2, 1 mM DTT; competition: 150 mM NaCl, 20 mM Tris-HCl pH 7.5, 1.5 mM MgCl2, 1 mM DTT, 10% glycerol, 4 °C; pull-down at 4 °C, wash 20 mM Tris-HCl pH 7.5, 1 mM EDTA, 450 mM NaCl", "conditions": "tags: GST (pGEX-6P-1)"}, "[2]": {"biological_target": "T1, IGF2BP3 (recombinant GST fusion)", "assay": "competition; displaces biotin-circITGB6 (1 uM), protein 1 uM; EMSA: 10 mM HEPES pH 7.3, 20 mM KCl, 1 mM MgCl2, 1 mM DTT; competition: 150 mM NaCl, 20 mM Tris-HCl pH 7.5, 1.5 mM MgCl2, 1 mM DTT, 10% glycerol, 4 °C; pull-down at 4 °C, wash 20 mM Tris-HCl pH 7.5, 1 mM EDTA, 450 mM NaCl", "conditions": "tags: GST (pGEX-6P-1)"}, "[3]": {"biological_target": "T1, IGF2BP3 (recombinant GST fusion)", "assay": "pull-down; EMSA: 10 mM HEPES pH 7.3, 20 mM KCl, 1 mM MgCl2, 1 mM DTT; competition: 150 mM NaCl, 20 mM Tris-HCl pH 7.5, 1.5 mM MgCl2, 1 mM DTT, 10% glycerol, 4 °C; pull-down at 4 °C, wash 20 mM Tris-HCl pH 7.5, 1 mM EDTA, 450 mM NaCl", "conditions": "protein: recombinant; tags: GST (pGEX-6P-1); label: 3' biotin"}}, "data": [{"binder": "ACUAGCUGGUGCGACCAUCAGUGAAGAAGA (ssRNA)", "note": "[M2 competitor, unlabeled]", "values": [{"measurement": "binding result", "setting": "[1]", "value": "no binding"}]}, {"binder": "ACUCUAAACGGAGCUGCAUUGAGUGCCACC (ssRNA)", "note": "[M1 competitor, unlabeled]", "values": [{"measurement": "binding result", "setting": "[2]", "value": "binds"}]}, {"binder": "ACUCUAAACGGAGCUGCAUUGAGUGCCACC (ssRNA)", "note": "[M1 (M1-WT) probe]", "values": [{"measurement": "binding result", "setting": "[3]", "value": "binds"}]}]}
